From article PMC4990970 come the findings set out here.

In assay [1] the target is AtBAG5/Hsc70 complex (AtBAG5-long/Hsp70) (Arabidopsis thaliana | human) (UniProt O65373). The assay is described as follows: ITC; iTC200, room temperature, 20 mM Tris-HCl pH 7.5, 500 mM NaCl, 5 mM EGTA (apo-CaM, absence of calcium); 0.05-0.1 mM in the cell, 0.5-1.0 mM in the syringe.
Assay [2] shares this target. The assay can be described thus: ITC; iTC200, room temperature, 20 mM Tris-HCl pH 7.5, 500 mM NaCl, 10 mM CaCl2 (holo-CaM, presence of calcium); 0.05-0.1 mM in the cell, 0.5-1.0 mM in the syringe. (ITC needs no label: the signal is the heat of the interaction.)

What is called Kd is the free concentration of one partner at which half of the binding sites on the other are occupied at equilibrium, for simple one-to-one binding. Regarding “Calmodulin (CaM) (from UniProt P0DP23 1-149) (natural protein)”, the Kd in assay [1] was 0.39 µM; in assay [2], 21.2 µM.
